In patent US12428633B2, “Inducible dimerization of recombinases” (TRUSTEES OF BOSTON UNIVERSITY, priority 2016, dated 2025):
“Also recorded” adds a separate entry of the source.

Key:
[1] = system: BUF logic reporters in HEK293FT; experiment: Recombinase activity, orthogonality and cross-reactivity on BUF logic reporters; format: cell-based, human; details: transient transfection, dose-response (FIG. 8)
Method: FIG. 8A-8C show recombinase cross-reactivity dose-response profile of Cre, Dre, VCre and Vika. FIG. 8A is a summary of intended and unintended recombination of Cre, Dre, VCre and Vika site-specific recombinases.
(§1) DNA was transfected into the human embryonic kidney cell line (HEK293FT) using a polyethylenimine (PEI) protocol. Cells were plated onto 48-(2504) or 96-well (1004) plates the day prior to transfection (200,000 cells/mL), such that the cells were 50-70% confluent the day of transfection. Cells were kept in a humidified incubator at 37° C. and 5% CO2 and maintained in DMEM medium (Corning) with 10% Heat Inactivated Fetal Bovine Serum (Life Technologies), 50 U.I./mL penicillin/50 μg/mL streptomycin (Corning), 2 mM glutamine (Corning) and 1 mM sodium pyruvate (Lonza). […]
(§2) Two days post-transfection and after trypsinization (0.05% Trypsin/0.53 mM EDTA, Corning) and resuspension, all HEK293FT cell populations were analyzed using a Becton Dickinson (BD) LSRFortessa SORP flow cytometer with HTS, except for data in FIG. 5, which were recorded on a BD LSRII. Time-course data was achieved through trypsinization and fixation of cells at particular time points (BD Cytofix) and kept at 4° C. until analyzed through flow cytometry. […]

[2] = system: 2-input BLADE decoder in HEK293FT cells; experiment: 4OHT- and ABA-inducible 2-input BLADE decoder; format: cell-based, human; details: transient transfection, 4OHT 1 μM, ABA 100 μM
Method: as §1, with “(Lonza). PEI stocks were made from linear polyethylenimine (Polysciences 23966-2) and were dissolved at a concentration of 0.323 g/L in deionized water with the assistance of concentrated hydrochloric acid and sodium hydroxide and then filtered sterilized (0.24 μm). PEI stocks were stored at −80° C. until use and warmed to room temperature prior to usage.” for “(Lonza).”
as §2

Row | Molecule | Cross-reactivity on other recombinases' reporter constructs [1] | Leaky recombinase behavior on 2-input BLADE decoder [2]
1 | Cre: full-length tyrosine recombinase, recognizes loxP (protein) MSNLLTVHQNLPALPVDATSDEVRKNLMDMFRDRQAFSEHTWKMLLSVCRSWAAWCKLNNRKWFPAEPEDVRDYLLYLQARGLAVKTIQQHLGQLNMLHRRSGLPRPSDSNAVSLVMRRIRKENVDAGERAKQALAFERTDFDQVRSLMENSDRCQDIRNLAFLGIAYNTLLRIAEIARIRVKDISRTDGGRMLIHIGRTKTLVSTAGVEKALSLGVTKLVERWISVSGVADDPNNYLFCRVRKNGVAAPSATSQLSTRALEGIFEATHRLIYGAKDDSGQRYLAWSGHSARVGAARDMARAGVSIPEIMQAGGWTNVNIVMNYIRNLDSETGAMVRLLEDGD | showed cross-reactivity in a dose-dependent manner; also recorded: mutually cross-reactive | 
2 | VCre: full-length tyrosine recombinase (SEQ ID NO: 16), recognizes VloxP (protein) MIENQLSLLGDFSGVRPDDVKTAIQAAQKKGINVAENEQFKAAFEHLLNEFKKREERYSPNTLRRLESAWTCFVDWCLANHRHSLPATPDTVEAFFIERAEELHRNTLSVYRWAISRVHRVAGCPDPCLDIYVEDRLKAIARKKVREGEAVKQASPFNEQHLLKLTSLWYRSDKLLLRRNLALLAVAYESMLRASELANIRVSDMELAGDGTAILTIPITKTNHSGEPDTCILSQDVVSLLMDYTEAGKLDMSSDGFLFVGVSKHNTCIKPKKDKQTGEVLHKPITTKTVEGVFYSAWETLDLGRQGVKPFTAHSARVGAAQDLLKKGYNTLQIQQSGRWSSGAMVARYGRAILARDGAMAHSRVKTRSAPMQWGKDEKD | showed cross-reactivity in a dose-dependent manner; also recorded: can recombine Vika's recombination sites | 
3 | split Flp system: split Flp recombinase construct fused to ABA-binding domains ABI and PYL (SEQ ID NO: 38 and 39) (protein) chain 1: MSQFDILCKTPPKVLVRQFVERFERPSGEKIASCAAELTYLCWMITHNGTAIKRATFMSYNTIISNSLSFDIVNKSLQFKYKTQKATILEASLKKLIPAWEFTIIPYNGQKHQSDITDIVSSLQLQFESSEEADKGNSHSKKMLKALLSEGESIWEITEKILNSFEYTSRFTKTKTLYQFLFLATFINCGRFSDIKNVDPKSFKLVQNKYLGVIIQCLVTETKTSVSRHIYFFSARGRIDPLVYLDEFLRNSEPVLKRVNRTGNSSSNKQEYQLLKDNLVRSYNKALKKNAPYPIFAIKNGPKSHIGRHLMTSFLSMKGLTELTNVVGNWSDKRASAVARTTYTHQITAIPDHYFALVSRYYAYDPISKEMIALKDETNPIEEWQHIEQLKGSAEGSGGSGSGSSGGSGTPLYGFTSICGRRPEMEDAVSTIPRFLQSSSGSMLDGRFDPQSAAHFFGVYDGHGGSQVANYCRERMHLALAEEIAKEKPMLCDGDTWLEKWKKALFNSFLRVDSEIGSVAPETVGSTSVVAVVFPSHIFVANCGDSRAVLCRGKTALPLSVDHKPDREDEAARIEAAGGKVIQWNGARVFGVLAMSRSIGDRYLKPSIIPDPEVTAVKRVKEDDCLILASDGVWDVMTDEEACEMARKRILLWHKKNAVAGDASLLADERRKEGKDPAAMSAAEYLSKLAIQRGSKDNISVVVVDLKDYKDDDDKPKKKRKV chain 2: MAPTQDEFTQLSQSIAEFHTYQLGNGRCSSLLAQRIHAPPETVWSVVRRFDRPQIYKHFIKSCNVSEDFEMRVGCTRDVNVISGLPANTSRERLDLLDDDRRVTGFSITGGEHRLRNYKSVTTVHRFEKEEEEERIWTVVLESYVVDVPEGNSEEDTRLFADTVIRLNLQKLASITEAMNYPYDVPDYASGGSGSGSSGGSGTSIRYPAWNGIISQEVLDYLSSYINRRIPKKKRKV |  | minimal leaky recombinase behavior
